Legend:
[1] = biological target: T1, NR2B (Homo sapiens, UniProt Q13224); assay: Ion channel panel (IonWorks Barracuda): NR2B; format: cell-based; conditions: 100% = no change, <100% = inhibition
T1 construct: host or cells: HEK293 or CHO
Procedure, shortened: (§1)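 Transfected HEK293 or CHO cells were exposed for at least 5 min to peptides at 200 nM and 20 μM final, tested in duplicate, in HEPES-buffered physiological saline. Activation was taken as peptide-plus-agonist current over control current ×100, and inhibition as 1 minus that ratio ×100. Each channel's control was its own reference compound.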

[2] = biological target: T2, α4β2 (Homo sapiens, UniProt P17787+P43681); assay: Ion channel panel (IonWorks Barracuda): α4β2; format: cell-based; conditions: 100% = no change, <100% = inhibition
T2 construct: host or cells: HEK293 or CHO
Procedure, shortened: as §1

[3] = biological target: T3, Kir2.1 (Homo sapiens, UniProt P63252); assay: Ion channel panel (IonWorks Barracuda): Kir2.1; format: cell-based; conditions: 100% = no change, <100% = inhibition
T3 construct: host or cells: HEK293 or CHO
Procedure, shortened: as §1

[4] = biological target: T4, Kv2.1 (Homo sapiens, UniProt Q14721); assay: cell-based; conditions: 100% = no change, <100% = inhibition
T4 construct: host or cells: HEK293 or CHO
Procedure, shortened: as §1

[5] = biological target: T5, Cav2.2 (Homo sapiens, UniProt Q00975); assay: cell-based; conditions: 100% = no change, <100% = inhibition
T5 construct: host or cells: HEK293 or CHO
Procedure, shortened: as §1

[6] = biological target: T6, Cav2.1 (Homo sapiens, UniProt O00555); assay: cell-based; conditions: 100% = no change, <100% = inhibition
T6 construct: host or cells: HEK293 or CHO
Procedure, shortened: as §1

[7] = biological target: T7, 5HT3a (Homo sapiens, UniProt P46098); assay: Ion channel panel (IonWorks Barracuda): 5HT3a; format: cell-based
T7 construct: host or cells: HEK293 or CHO
T7 sequence (P46098 whole entry, looked up): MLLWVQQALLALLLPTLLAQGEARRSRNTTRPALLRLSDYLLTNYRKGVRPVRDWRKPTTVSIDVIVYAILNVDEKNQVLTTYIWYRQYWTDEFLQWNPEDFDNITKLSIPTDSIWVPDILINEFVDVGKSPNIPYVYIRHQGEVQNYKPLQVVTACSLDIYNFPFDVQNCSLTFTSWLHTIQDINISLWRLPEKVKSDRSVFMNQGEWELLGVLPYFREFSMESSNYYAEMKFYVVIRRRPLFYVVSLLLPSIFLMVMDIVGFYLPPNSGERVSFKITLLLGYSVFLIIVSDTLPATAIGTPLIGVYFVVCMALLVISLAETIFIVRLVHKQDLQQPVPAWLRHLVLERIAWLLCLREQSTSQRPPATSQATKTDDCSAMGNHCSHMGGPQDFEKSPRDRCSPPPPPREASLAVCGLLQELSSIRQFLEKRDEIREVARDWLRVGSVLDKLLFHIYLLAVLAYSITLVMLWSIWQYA
Procedure, shortened: as §1

[8] = biological target: T8, TRPV1 (Homo sapiens, UniProt Q8NER1); assay: Ion channel panel (IonWorks Barracuda): TRPV1; format: cell-based; conditions: 100% = no change, <100% = inhibition
T8 construct: host or cells: HEK293 or CHO
Procedure, shortened: as §1

[9] = system: GABA; assay: Ion channel panel (IonWorks Barracuda): GABA; format: cell-based; conditions: 100% = no change, <100% = inhibition
Procedure, shortened: as §1

[10] = biological target: T9, Nav1.7 (Homo sapiens, UniProt Q15858); assay: cell-based; format: cell-based; conditions: 100% = no change; for Activity of Nav1.7 with peptide, expressed as a percentage of the reference compound: peptide at 0.2 μM; for Activity of Nav1.7 with peptide (percentage of the reference compound): peptide at 20 μM
T9 construct: host or cells: HEK293 or CHO

[11] = biological target: hERG (Homo sapiens, UniProt Q12809); assay: in vitro; conditions: 100% = no change, <100% = inhibition
Procedure, shortened: as §1

[12] = biological target: Nav1.5 (Homo sapiens, UniProt Q14524); assay: in vitro; conditions: 100% = no change; for Activity of Nav1.5 with peptide, expressed as a percentage of the reference compound: peptide at 0.2 μM; for Activity of Nav1.5 with peptide (percentage of the reference compound): peptide at 20 μM
Procedure, shortened: as §1

[13] = biological target: T10, NR2A (Homo sapiens, UniProt Q12879); assay: Ion channel panel (IonWorks Barracuda): NR2A; format: cell-based; conditions: 100% = no change, <100% = inhibition
T10 construct: host or cells: HEK293 or CHO
Procedure, shortened: as §1

[14] = biological target: T11, α3β4 (Homo sapiens, UniProt P30926+P32297); assay: Ion channel panel (IonWorks Barracuda): α3β4; format: cell-based; conditions: 100% = no change, <100% = inhibition
T11 construct: host or cells: HEK293 or CHO
Procedure, shortened: as §1

[15] = biological target: T12, TRPA1 (Homo sapiens, UniProt O75762); assay: Ion channel panel (IonWorks Barracuda): TRPA1; format: cell-based; conditions: 100% = no change, <100% = inhibition
T12 construct: host or cells: HEK293 or CHO
Procedure, shortened: as §1

[16] = biological target: T13, Kv1.1 (Homo sapiens, UniProt Q09470); assay: cell-based; format: cell-based; conditions: 100% = no change, <100% = inhibition
T13 construct: host or cells: HEK293 or CHO
Procedure, shortened: as §1

[17] = biological target: T14, Kv1.2 (Homo sapiens, UniProt P16389); assay: cell-based; format: cell-based; conditions: 100% = no change, <100% = inhibition
T14 construct: host or cells: HEK293 or CHO
Procedure, shortened: as §1

[18] = biological target: T15, Kv1.3 (Homo sapiens, UniProt P22001); assay: cell-based; format: cell-based; conditions: 100% = no change, <100% = inhibition
T15 construct: host or cells: HEK293 or CHO
Procedure, shortened: as §1

[19] = first of two Nav1.7 columns (probably TP1)
[20] = second of two Nav1.7 columns (probably TP2)
[21] = first of two Nav1.5 columns (probably TP1)
[22] = second of two Nav1.5 columns (probably TP2)

Sequence of Nav1.5 (Q14524 whole entry): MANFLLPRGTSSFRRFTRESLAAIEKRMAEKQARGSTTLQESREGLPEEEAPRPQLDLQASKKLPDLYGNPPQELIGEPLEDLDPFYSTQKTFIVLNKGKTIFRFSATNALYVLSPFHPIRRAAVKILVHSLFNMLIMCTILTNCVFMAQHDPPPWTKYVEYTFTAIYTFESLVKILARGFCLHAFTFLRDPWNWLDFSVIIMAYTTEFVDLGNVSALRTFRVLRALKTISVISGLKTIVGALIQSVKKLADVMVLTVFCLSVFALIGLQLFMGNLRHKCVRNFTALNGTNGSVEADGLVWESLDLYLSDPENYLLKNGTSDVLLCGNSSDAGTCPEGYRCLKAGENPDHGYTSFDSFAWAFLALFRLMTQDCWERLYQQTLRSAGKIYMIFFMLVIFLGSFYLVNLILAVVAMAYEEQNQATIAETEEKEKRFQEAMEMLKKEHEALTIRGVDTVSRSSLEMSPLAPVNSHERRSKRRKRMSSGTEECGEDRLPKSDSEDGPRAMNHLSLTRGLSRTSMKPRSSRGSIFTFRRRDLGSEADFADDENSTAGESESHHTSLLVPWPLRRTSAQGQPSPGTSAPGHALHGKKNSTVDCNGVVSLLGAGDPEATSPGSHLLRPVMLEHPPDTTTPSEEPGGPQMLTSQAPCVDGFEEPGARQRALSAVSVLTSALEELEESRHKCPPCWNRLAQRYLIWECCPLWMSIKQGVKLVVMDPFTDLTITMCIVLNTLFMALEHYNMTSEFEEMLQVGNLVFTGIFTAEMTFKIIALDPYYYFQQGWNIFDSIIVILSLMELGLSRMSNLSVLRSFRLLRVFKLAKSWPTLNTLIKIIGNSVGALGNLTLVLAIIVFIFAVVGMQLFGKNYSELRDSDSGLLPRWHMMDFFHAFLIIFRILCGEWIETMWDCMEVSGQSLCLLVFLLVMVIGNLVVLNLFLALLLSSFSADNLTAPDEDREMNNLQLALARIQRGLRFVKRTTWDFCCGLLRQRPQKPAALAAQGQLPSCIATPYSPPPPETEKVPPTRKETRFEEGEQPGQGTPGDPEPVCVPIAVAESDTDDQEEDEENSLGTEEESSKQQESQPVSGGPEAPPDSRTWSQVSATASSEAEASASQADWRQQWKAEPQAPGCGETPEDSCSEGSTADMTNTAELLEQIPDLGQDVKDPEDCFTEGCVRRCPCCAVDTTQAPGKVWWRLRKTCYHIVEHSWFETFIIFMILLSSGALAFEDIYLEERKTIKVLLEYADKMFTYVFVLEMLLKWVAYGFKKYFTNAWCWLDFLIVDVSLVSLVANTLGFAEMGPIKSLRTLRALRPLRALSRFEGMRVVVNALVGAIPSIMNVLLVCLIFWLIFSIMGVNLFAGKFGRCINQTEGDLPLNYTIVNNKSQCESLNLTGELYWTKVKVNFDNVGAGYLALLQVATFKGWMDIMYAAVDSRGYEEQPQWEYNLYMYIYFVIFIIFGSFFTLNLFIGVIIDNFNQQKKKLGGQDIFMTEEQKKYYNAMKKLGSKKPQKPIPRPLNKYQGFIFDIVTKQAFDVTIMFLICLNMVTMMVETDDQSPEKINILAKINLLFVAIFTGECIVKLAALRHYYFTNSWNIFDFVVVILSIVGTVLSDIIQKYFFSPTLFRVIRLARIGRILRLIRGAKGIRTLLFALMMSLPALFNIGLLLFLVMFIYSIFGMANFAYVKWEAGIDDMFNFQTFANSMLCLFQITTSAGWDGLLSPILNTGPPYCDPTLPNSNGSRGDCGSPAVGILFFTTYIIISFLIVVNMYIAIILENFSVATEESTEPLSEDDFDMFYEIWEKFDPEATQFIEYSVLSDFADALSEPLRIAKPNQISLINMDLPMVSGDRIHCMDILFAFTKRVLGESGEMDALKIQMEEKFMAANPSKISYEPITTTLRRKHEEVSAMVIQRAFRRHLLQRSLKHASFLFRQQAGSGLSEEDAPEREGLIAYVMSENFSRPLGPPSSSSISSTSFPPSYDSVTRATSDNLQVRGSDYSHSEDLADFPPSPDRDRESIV
T9 sequence (Q15858 whole entry): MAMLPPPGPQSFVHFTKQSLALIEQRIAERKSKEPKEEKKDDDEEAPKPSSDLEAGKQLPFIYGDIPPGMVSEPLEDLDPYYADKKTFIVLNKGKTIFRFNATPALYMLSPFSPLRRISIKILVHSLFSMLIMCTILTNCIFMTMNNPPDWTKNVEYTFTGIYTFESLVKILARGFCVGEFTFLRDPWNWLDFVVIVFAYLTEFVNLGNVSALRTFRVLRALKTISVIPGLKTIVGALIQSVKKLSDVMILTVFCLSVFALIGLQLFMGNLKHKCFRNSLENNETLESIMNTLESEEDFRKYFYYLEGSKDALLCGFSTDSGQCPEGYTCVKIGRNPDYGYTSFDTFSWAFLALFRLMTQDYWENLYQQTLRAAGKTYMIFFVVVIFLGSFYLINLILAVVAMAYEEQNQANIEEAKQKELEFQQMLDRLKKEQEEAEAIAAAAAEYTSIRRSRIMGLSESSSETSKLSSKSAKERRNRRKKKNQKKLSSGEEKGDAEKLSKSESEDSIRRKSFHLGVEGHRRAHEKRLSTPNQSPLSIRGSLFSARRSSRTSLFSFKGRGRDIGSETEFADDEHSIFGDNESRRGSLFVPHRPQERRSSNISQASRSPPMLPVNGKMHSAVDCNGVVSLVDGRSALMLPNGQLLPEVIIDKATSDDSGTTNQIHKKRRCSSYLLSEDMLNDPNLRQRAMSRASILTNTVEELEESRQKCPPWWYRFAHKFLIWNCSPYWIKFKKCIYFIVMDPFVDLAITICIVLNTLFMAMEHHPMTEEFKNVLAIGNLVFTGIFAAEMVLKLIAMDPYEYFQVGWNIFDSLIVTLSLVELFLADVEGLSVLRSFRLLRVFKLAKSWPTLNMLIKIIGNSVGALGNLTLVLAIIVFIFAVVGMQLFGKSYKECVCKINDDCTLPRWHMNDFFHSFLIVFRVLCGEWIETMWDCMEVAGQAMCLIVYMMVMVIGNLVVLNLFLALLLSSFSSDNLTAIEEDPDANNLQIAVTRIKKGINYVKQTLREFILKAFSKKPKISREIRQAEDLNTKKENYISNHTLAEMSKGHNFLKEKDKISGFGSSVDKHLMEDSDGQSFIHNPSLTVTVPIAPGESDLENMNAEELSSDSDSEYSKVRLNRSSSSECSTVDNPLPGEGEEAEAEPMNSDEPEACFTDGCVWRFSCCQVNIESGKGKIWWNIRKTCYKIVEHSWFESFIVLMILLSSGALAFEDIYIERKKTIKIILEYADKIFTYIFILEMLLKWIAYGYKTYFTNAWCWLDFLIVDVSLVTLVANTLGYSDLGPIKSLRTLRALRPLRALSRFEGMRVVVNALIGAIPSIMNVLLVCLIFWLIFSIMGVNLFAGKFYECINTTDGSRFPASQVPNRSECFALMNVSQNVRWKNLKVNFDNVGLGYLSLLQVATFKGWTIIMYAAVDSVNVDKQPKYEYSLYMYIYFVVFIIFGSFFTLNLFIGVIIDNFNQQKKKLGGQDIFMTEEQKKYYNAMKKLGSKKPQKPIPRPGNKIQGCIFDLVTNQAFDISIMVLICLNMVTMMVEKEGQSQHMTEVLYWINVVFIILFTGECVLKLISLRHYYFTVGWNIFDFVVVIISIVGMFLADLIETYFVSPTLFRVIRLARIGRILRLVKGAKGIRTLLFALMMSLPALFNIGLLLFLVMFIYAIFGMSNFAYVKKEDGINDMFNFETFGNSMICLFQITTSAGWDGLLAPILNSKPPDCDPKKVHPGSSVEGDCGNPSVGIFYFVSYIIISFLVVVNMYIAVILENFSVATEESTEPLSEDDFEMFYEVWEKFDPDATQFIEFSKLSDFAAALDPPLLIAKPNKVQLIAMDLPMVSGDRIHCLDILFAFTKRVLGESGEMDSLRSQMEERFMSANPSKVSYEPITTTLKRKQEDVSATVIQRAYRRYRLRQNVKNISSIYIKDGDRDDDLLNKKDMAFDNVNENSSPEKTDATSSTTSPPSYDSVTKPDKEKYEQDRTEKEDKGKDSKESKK
T14 sequence (P16389 whole entry): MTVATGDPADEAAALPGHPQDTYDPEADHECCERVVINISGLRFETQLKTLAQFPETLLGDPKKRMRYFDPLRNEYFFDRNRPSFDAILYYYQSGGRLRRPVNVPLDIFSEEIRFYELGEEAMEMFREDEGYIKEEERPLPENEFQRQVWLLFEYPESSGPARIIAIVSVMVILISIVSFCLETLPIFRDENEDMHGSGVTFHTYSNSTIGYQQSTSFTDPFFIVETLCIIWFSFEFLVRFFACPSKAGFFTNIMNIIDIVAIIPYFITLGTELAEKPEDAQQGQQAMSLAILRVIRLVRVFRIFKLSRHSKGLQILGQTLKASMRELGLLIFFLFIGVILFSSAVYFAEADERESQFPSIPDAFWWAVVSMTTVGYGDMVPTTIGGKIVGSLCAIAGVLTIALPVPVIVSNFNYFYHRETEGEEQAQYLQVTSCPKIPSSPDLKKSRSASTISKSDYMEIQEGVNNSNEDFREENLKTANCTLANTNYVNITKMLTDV
T13 sequence (Q09470 whole entry): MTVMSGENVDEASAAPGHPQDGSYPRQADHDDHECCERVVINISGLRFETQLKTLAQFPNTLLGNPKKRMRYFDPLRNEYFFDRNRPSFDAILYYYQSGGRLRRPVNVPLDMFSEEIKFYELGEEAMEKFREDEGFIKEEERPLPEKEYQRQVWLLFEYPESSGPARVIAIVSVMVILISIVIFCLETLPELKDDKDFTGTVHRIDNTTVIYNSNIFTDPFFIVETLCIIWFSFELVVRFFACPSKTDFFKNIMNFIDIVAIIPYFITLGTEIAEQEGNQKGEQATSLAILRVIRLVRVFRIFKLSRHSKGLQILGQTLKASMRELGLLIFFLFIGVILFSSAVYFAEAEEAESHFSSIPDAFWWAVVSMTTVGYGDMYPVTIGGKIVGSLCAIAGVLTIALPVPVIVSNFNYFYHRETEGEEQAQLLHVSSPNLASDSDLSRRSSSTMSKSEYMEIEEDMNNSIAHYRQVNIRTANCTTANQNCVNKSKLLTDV

In the case of “12 (GSNFKVEGACSKPCRKYCIDKGARNGKCINGRCHCYY) [compound 12]”, the “Activity of NR2B with peptide, expressed as a percentage of the reference compound” value ([1]; peptide at 0.2 μM) is reported as 122%, the “Activity of NR2B with peptide (percentage of the reference compound)” value ([1]; peptide at 20 μM) is reported as 83% and the “Activity of a4b2 with peptide, expressed as a percentage of the reference compound” value ([2]; peptide at 0.2 μM) is reported as 97%. For the same substance, the “Activity of a4b2 with peptide (percentage of the reference compound)” value ([2]; peptide at 20 μM) was 84%, the “Activity of Kir2.1 with peptide, expressed as a percentage of the reference compound” value ([3]; peptide at 0.2 μM) was 97% and the “Activity of Kir2.1 with peptide (percentage of the reference compound)” value ([3]; peptide at 20 μM) was 102%. The “Activity of Kv2.1 with peptide, expressed as a percentage of the reference compound” value ([4]; peptide at 0.2 μM) was 104%, the “Activity of Kv2.1 with peptide (percentage of the reference compound)” value ([4]; peptide at 20 μM) was 113% and the “Activity of Cav2.2 with peptide, expressed as a percentage of the reference compound” value ([5]; peptide at 0.2 μM) was 115%. The “Activity of Cav2.2 with peptide (percentage of the reference compound)” value ([5]; peptide at 20 μM) was 115%, the “Activity of Cav2.1 with peptide, expressed as a percentage of the reference compound” value ([6]; peptide at 0.2 μM) was 109% and the “Activity of Cav2.1 with peptide (percentage of the reference compound)” value ([6]; peptide at 20 μM) was 104%. For the same substance, the “Activity of 5HT3a with peptide (percentage of the reference compound)” value [7] was 97%, the “Activity of 5HT3a with peptide, expressed as a percentage of the reference compound” value [7] was 96% and the “Activity of TRPV1 with peptide, expressed as a percentage of the reference compound” value ([8]; peptide at 0.2 μM) was 97%. For the same substance, the “Activity of TRPV1 with peptide (percentage of the reference compound)” value ([8]; peptide at 20 μM) was 78%, the “Activity of GABA with peptide, expressed as a percentage of the reference compound” value ([9]; peptide at 0.2 μM) was 102% and the “Activity of GABA with peptide (percentage of the reference compound)” value ([9]; peptide at 20 μM) was 93%. For the same substance, the “Activity of Nav1.7 with peptide, expressed as a percentage of the reference compound” value [10, 19] was 61%, the “Activity of Nav1.7 with peptide, expressed as a percentage of the reference compound” value [10, 20] was 66% and the “Activity of Nav1.7 with peptide (percentage of the reference compound)” value [10, 19] was 74%. The “Activity of Nav1.7 with peptide (percentage of the reference compound)” value [10, 20] was 63%, the “Activity of hERG with peptide, expressed as a percentage of the reference compound” value ([11]; peptide at 0.2 μM) was 89% and the “Activity of hERG with peptide (percentage of the reference compound)” value ([11]; peptide at 20 μM) was 81%. The “Activity of Nav1.5 with peptide, expressed as a percentage of the reference compound” value [12, 21] was 98%, the “Activity of Nav1.5 with peptide, expressed as a percentage of the reference compound” value [12, 22] was 95% and the “Activity of Nav1.5 with peptide (percentage of the reference compound)” value [12, 21] was 131%. The “Activity of Nav1.5 with peptide (percentage of the reference compound)” value [12, 22] was 136%, the “Activity of NR2A with peptide, expressed as a percentage of the reference compound” value ([13]; peptide at 0.2 μM) was 94% and the “Activity of NR2A with peptide (percentage of the reference compound)” value ([13]; peptide at 20 μM) was 91%. For the same substance, the “Activity of a3b4 with peptide, expressed as a percentage of the reference compound” value ([14]; peptide at 0.2 μM) was 103%, the “Activity of a3b4 with peptide (percentage of the reference compound)” value ([14]; peptide at 20 μM) was 94% and the “Activity of TRPA1 with peptide, expressed as a percentage of the reference compound” value ([15]; peptide at 0.2 μM) was 129%. For the same substance, the “Activity of TRPA1 with peptide (percentage of the reference compound)” value ([15]; peptide at 20 μM) was 80%, the “Activity of Kv1.1 with peptide, expressed as a percentage of the reference compound” value ([16]; peptide at 0.2 μM) was 107% and the “Activity of Kv1.1 with peptide (percentage of the reference compound)” value ([16]; peptide at 20 μM) was 84%. For the same substance, the “Activity of Kv1.2 with peptide, expressed as a percentage of the reference compound” value ([17]; peptide at 0.2 μM) was 88%, the “Activity of Kv1.2 with peptide (percentage of the reference compound)” value ([17]; peptide at 20 μM) was 41% and the “Activity of Kv1.3 with peptide, expressed as a percentage of the reference compound” value ([18]; peptide at 0.2 μM) was 68%. The “Activity of Kv1.3 with peptide (percentage of the reference compound)” value ([18]; peptide at 20 μM) was 23%.
